Experimental data from IntAct's records for PubMed 15546359.

B1: Auxin-responsive protein IAA1 (Arabidopsis thaliana (Mouse-ear cress)), P49677 (parent)
chain: MEVTNGLNLKDTELRLGLPGAQEEQQLELSCVRSNNKRKNNDSTEESAPPPAKTQIVGWPPVRSNRKNNNNKNVSYVKVSMDGAPYLRKIDLKMYKNYPELLKALENMFKFTVGEYSEREGYKGSGFVPTYEDKDGDWMLVGDVPWDMFSSSCQKLRIMKGSEAPTAL
partner: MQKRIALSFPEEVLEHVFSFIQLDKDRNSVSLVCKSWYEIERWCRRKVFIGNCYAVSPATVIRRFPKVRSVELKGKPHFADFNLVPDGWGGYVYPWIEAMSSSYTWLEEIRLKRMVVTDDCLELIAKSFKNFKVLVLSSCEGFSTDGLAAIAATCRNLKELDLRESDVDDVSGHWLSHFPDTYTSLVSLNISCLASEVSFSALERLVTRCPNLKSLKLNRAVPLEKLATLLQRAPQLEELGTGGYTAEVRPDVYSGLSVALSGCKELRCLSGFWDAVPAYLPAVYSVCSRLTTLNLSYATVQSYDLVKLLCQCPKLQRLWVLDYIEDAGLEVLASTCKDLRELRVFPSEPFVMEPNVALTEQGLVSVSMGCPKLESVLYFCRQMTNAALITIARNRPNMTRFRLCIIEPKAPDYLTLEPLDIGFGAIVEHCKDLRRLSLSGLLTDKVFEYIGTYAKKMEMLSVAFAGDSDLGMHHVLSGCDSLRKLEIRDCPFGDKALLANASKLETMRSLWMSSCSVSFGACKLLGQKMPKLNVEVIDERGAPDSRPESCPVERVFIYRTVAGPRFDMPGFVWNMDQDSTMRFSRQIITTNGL

Variants of: B1
Details: with tir1_arath TIR1, Q570C0

Variant | effect of a mutation on the interaction
P61S | decreasing interaction
